# Test results as given in paper PMC10673652, “PoWRKY71 is involved in Paeonia ostii resistance to drought stress by directly regulating light-harvesting chlorophyll a/b-binding 151 gene”.
# B1: PoCAB151 promoter W-box probe (dsDNA)
# DNA 1: GTGTTTCCTGCATTCGGTCAGCAACCAAATGACC
# DNA 2: GGTCATTTGGTTGCTGACCGAATGCAGGAAACAC
# B2: PoCAB151 promoter W-box mutant probe (dsDNA)
# DNA 1: GTGTTTCCTGCATTCGAAAAGCAACCAAATGACC
# DNA 2: GGTCATTTGGTTGCTTTTCGAATGCAGGAAACAC
# Target: PoWRKY71 (Paeonia ostii, UniProt A0AB38Z7I8 1-311)
# Experiment: EMSA; not stated in the material (EMSA as in Luan et al., ref. 58)
# Conditions: protein: recombinant, tags: His, SUMO (pET-SUMO), blunt
# PoWRKY71, sequence (A0AB38Z7I8 entry or part of it): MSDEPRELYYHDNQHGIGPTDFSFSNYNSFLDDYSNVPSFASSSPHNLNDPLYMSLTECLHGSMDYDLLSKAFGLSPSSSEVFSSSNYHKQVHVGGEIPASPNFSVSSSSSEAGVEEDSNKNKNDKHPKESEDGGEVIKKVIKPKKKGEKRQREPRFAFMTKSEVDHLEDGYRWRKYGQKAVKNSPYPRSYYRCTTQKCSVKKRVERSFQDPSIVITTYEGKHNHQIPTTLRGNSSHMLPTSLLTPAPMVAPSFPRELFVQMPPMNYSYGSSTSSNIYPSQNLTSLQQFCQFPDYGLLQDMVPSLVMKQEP
Binder,binding result,binding result (label: biotin)
B1,binds,–
B2,–,no binding
